Laboratory results as given in the supplement of paper PMC9170038.

Tested on: MS2 coat protein
Test: apparent KD of MS2 coat protein; designed switch direction (-1 OFF switch, 1 ON switch): -1; higher = weaker reporter binding
How it was run: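 The reported apparent KD is a per-design median over clusters, from curve fits of normalised cluster fluorescence. Protein titrations used SNAP-549-labelled MS2 coat protein, doubled from 0.7 or 1.5 nM to 3 µM, in Tris-HCl pH 7.5 buffer with KCl, MgCl2, BSA, DTT, tRNA and Tween-20, with no input, 200 uM small-molecule ligand, or an oligonucleotide input. The RNA switches were transcribed on Illumina chips by stalled E. coli RNA polymerase.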

[1] = Eterna round: R95, input ligand: FMN 200 uM
[2] = Eterna round: R95, input ligand: microRNA oligo, concentration not stated
[3] = Eterna round: R95, input ligand: none
[4] = input ligand: microRNA oligo, concentration not stated

| Sequence | apparent KD of MS2 coat protein [1] [nM] | apparent KD of MS2 coat protein [2] [nM] | apparent KD of MS2 coat protein [3] [nM] | apparent KD of MS2 coat protein (input ligand: FMN 200 uM) [nM] | apparent KD of MS2 coat protein [4] [nM] | apparent KD of MS2 coat protein (input ligand: none) [nM] |
| --- | --- | --- | --- | --- | --- | --- |
| AGUAGUAGUAUCCGUUCUUACAUGAGGAUCACCCAUGUUUCUUGACGUGCACGCGAUGCUCGUCAGACUACCAGAUG [salish99_TOv1_r3_055] (puzzle: Sensor v3, turn-off variant 1) | 68.5 | 88.4 | 91.5 |  |  |  |
| AGUAGUUGUUUCCGUUCUUACAUGAGGAUCACCCAUGUUUCUUGUCGUGCUCGCGUUGCUCGUCAGACUACCAGUUG [salish99_TOv1_r3_061] (puzzle: Sensor v3, turn-off variant 1) | 62.4 | 73.7 | 87.6 |  |  |  |
| AGUAGUUGUUUCCGUUCUUACAUGAGGAUCACCCAUGUUUCUUGUCGUGCUCGCGUUGCUCGUCAGACUUCCUGUUG [salish99_TOv1_r3_063] (Eterna round: R96, puzzle: Sensor v3, turn-off variant 1) |  |  |  | 87.5 | 49.5 | 76.6 |
| AGUAGUUGUUUCCGUUCUUACAUGAGGAUCACCCAUGUUUCUUGUCGUGCUCGCGUUGCUCGUCAGACUUCCUGUUG [salish99_TOv1_r3_063] (puzzle: Sensor v3, turn-off variant 1) | 87.2 | 102 | 123 |  |  |  |
| AGUAUGCGGCAGGAUAUCCAUCCGCGAAAAGGUGGAGAAGGGCUGACAUGAGGAUCACCCAUGUGCGUCCUGUA [salish99_ex6_r4_030] (Eterna round: R97, puzzle: Exclusion 6) |  |  |  | 25.3 |  | 17.7 |
| AGUCAAACGGUAGGAUAUCCAUAUCGAGUGACCCUUUCAUAACAUGAGGAUCACCCAUGUCGGUGGGAGAAGGGCCGUAAGGCA [Mat - Exclusion NG 2 - Mod of JL - D70] (Eterna round: R96, puzzle: Exclusion NG 2) |  |  |  | 99.6 | 43.1 | 52.4 |
| AGUCAAGAUGAGGAUAUCCGUGUAACAAACGCAGGAGAAGGCGUCACAUGAGGAUCACCCAUGUUGCCUCUAAG [Eternabot (L1) Solution 92] (Eterna round: R97, puzzle: Exclusion 6) |  |  |  | 45.9 |  | 58.1 |
| AGUCAGGCGGUAGGAUAUCCAAAUCGAGUGACCCUUUCAUAACAUGAGGAUCACCCAUGUCGGUGGGAGAAGGGCCGUACGGCG [JL ViennaUCT Atra mod 3] (Eterna round: R96, puzzle: Exclusion NG 2) |  |  |  | 232 | 88 | 104 |
| AGUCCACUUACAAGCUUUUACAUGAGGAUCACCCAUGUGUGGGACCCUAAGGGUGCUCAUGACCGCUCCAUACUCUC [Eternabot (L1) Solution 4] (Eterna round: R97, puzzle: Sensor, turn-off variant 1) |  |  |  | 240 |  | 254 |
| AGUCGGUCAGGAUAUGCAAACGUGGACAUGAGGAUCACCCAUGUAACGUGGGCCUGGUUUGUAGAAGGGACGAGCA [EX5 #86] (Eterna round: R97, puzzle: Exclusion 5) |  |  |  | 35.1 |  | 34.5 |
| AGUCGUAGACAGGAUAUGCGGCUAAUAAAUAAAGCAGAAGGGUCUACUUGAGGAUCACCCAAGUGGGCGGUUAA [jl-ex6-4.19 ViennaUCT mod] (Eterna round: R97, puzzle: Exclusion 6) |  |  |  | 104 |  | 20.8 |
| AGUGCGUAUGUGAGGAUAUGCUGGUCCUUGGAUCAGCAGAAGGCACAUGAGGAUCACCCAUGUGGUGUCGUACG [salish99_Bmod_Ex4_004] (puzzle: Brourd's mod of Exclusion 4) | 245 | 51.8 | 60 |  |  |  |
| AGUGUGGAGACAGGAUAUGAGAAUAGAUAGAAAUCAGAAGGGUCACAUGAGGAUCACCCAUGUAAAGUCUUGAGGAUGAGUGAU [Prohibition 2 - Jieux - Exclusion NG 1] (Eterna round: R96, puzzle: Exclusion NG 1) |  |  |  | 263 | 63.9 | 88.8 |
| AGUGUGUGGCAGGAUAUGCGAUUUGUAGGUGAAGCAGAAGGGUCUACAUGAGGAUCACCCAUGUGUGCGGUUGA [Ex6 #18] (Eterna round: R97, puzzle: Exclusion 6) |  |  |  | 457 |  | 216 |
| AGUUGGCGAGGAUAUACAUGAGGAUCACCCAUGUGAGAGAAAAAAGUGAGGAAGAAAAGUAGAAGGCGCUGACG [salish99_ex3_r3_040] (puzzle: Exclusion 3) | 61.2 | 38.5 | 40.1 |  |  |  |
| AGUUGGCGAGGAUAUACAUGAGGAUCACCCAUGUGAGAGAUACUAGUGAGGUCGAUUAGGAGAAGGCGCUGACA [Mat X3R4 m20] (Eterna round: R97, puzzle: Exclusion 3) |  |  |  | 63.1 |  | 48 |
| AGUUGGCGAGGAUAUACAUGAGGAUCACCCAUGUGAGAGAUACUAGUGAGGUCGAUUAGUAGAAGGCGCUGACA [Mat - Exclusion 3 - Mod of JL D77] (puzzle: Exclusion 3) |  | 31.6 |  |  |  |  |
